T1: FcγRIIa H (human, UniProt P12318 34-217)
T1 construct: extracellular domain; Soluble His-tagged extracellular domain expressed in FreeStyle293 cells; also called FcγRIIa type H; FcgRIIa H; not shown: His tag attached to the C terminus
T1 sequence (looked up): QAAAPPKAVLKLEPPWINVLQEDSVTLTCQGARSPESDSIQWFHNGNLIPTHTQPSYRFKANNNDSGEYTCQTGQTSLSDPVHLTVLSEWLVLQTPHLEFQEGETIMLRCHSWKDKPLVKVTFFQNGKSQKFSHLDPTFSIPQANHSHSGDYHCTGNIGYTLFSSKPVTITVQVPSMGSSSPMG

T2: FcγRIIb (human, UniProt P31994 43-217)
T2 construct: extracellular domain; Soluble His-tagged extracellular domain expressed in FreeStyle293 cells; also called FcgRIIb; 2b; not shown: His tag attached to the C terminus
T2 sequence (looked up): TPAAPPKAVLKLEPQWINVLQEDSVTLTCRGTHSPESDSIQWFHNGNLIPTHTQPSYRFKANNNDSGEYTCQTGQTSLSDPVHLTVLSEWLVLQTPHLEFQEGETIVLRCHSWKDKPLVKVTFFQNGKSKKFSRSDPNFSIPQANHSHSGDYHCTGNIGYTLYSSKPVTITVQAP

B1: GpH7-A5/GpH7-B3 variant N325_03V/GpL16-k0 (antibody, human IgG1, kappa)
heavy 1: not shown
heavy 2: not shown
light: DIVMTQSPLSLPVTPGEPASISCQASESLVHSNRNTYLHWYLQKPGQSPQLLIYKVSNRFSGVPDRFSGSGSGTDFTLKISRVEAEDVGVYYCSQNTHVPPTFGQGTKVEIERTVAAPSVFIFPPSDEQLKSGTASVVCLLNNFYPREAKVQWKVDNALQSGNSQESVTEQDSKDSTYSLSSTLTLSKADYEKHKVYACEVTHQGLSSPVTKSFNRGEC
notes: Heterodimerized anti-glypican-3 IgG1; mutation in the GpH7-B3 H chain only; also called He Ab
B2: GpH7-A5/GpH7-B3 variant K326_15Y/GpL16-k0 (antibody, human IgG1, kappa)
heavy 1: not shown
heavy 2: not shown
light: B1 light
notes: as for B1
B3: GpH7-A5/GpH7-B3 variant K326_10E/GpL16-k0 (antibody, human IgG1, kappa)
heavy 1: not shown
heavy 2: not shown
light: B1 light
notes: as for B1
B4: GpH7-A5/GpH7-B3 variant K326_20W/GpL16-k0 (antibody, human IgG1, kappa)
heavy 1: not shown
heavy 2: not shown
light: B1 light
notes: as for B1
B5: GpH7-A5/GpH7-B3 variant N325_05P/GpL16-k0 (antibody, human IgG1, kappa)
heavy 1: not shown
heavy 2: not shown
light: B1 light
notes: as for B1
B6: GpH7-A5/GpH7-B3 variant K326_08L/GpL16-k0 (antibody, human IgG1, kappa)
heavy 1: not shown
heavy 2: not shown
light: B1 light
notes: as for B1
B7: GpH7-A5/GpH7-B3 variant N325_04F/GpL16-k0 (antibody, human IgG1, kappa)
heavy 1: not shown
heavy 2: not shown
light: B1 light
notes: as for B1
B8: GpH7-A5/GpH7-B3 variant K326_07I/GpL16-k0 (antibody, human IgG1, kappa)
heavy 1: not shown
heavy 2: not shown
light: B1 light
notes: as for B1
B9: GpH7-A5/GpH7-B3 variant N325_10E/GpL16-k0 (antibody, human IgG1, kappa)
heavy 1: not shown
heavy 2: not shown
light: B1 light
notes: as for B1
B10: GpH7-A5/GpH7-B3 variant K326_14T/GpL16-k0 (antibody, human IgG1, kappa)
heavy 1: not shown
heavy 2: not shown
light: B1 light
notes: as for B1
B11: GpH7-A5/GpH7-B3 variant N325_02A/GpL16-k0 (antibody, human IgG1, kappa)
heavy 1: not shown
heavy 2: not shown
light: B1 light
notes: as for B1
B12: GpH7-A5/GpH7-B3 variant N325_07I/GpL16-k0 (antibody, human IgG1, kappa)
heavy 1: not shown
heavy 2: not shown
light: B1 light
notes: as for B1
B13: GpH7-A5/GpH7-B3 variant N325_06M/GpL16-k0 (antibody, human IgG1, kappa)
heavy 1: not shown
heavy 2: not shown
light: B1 light
notes: as for B1
B14: GpH7-A5/GpH7-B3 variant K326_06M/GpL16-k0 (antibody, human IgG1, kappa)
heavy 1: not shown
heavy 2: not shown
light: B1 light
notes: as for B1
B15: GpH7-A5/GpH7-B3 variant N325_09D/GpL16-k0 (antibody, human IgG1, kappa)
heavy 1: not shown
heavy 2: not shown
light: B1 light
notes: as for B1
B16: GpH7-A5/GpH7-B3 variant K326_19Q/GpL16-k0 (antibody, human IgG1, kappa)
heavy 1: not shown
heavy 2: not shown
light: B1 light
notes: as for B1
B17: GpH7-A5/GpH7-B3 variant K326_09D/GpL16-k0 (antibody, human IgG1, kappa)
heavy 1: not shown
heavy 2: not shown
light: B1 light
notes: as for B1

biological target: T1, FcγRIIa H; experiment: SPR (Biacore); He/Con_2aH divided by He/Con_2b (FcγRIIb) of the same antibody

He_2aH/2b	Binder
0.41 ratio	B1
0.62 ratio	B2
0.51 ratio	B3
0.56 ratio	B4
0.8 ratio	B5
0.52 ratio	B6
0.23 ratio	B7
0.5 ratio	B8
0.55 ratio	B9
0.77 ratio	B10
0.74 ratio	B11
0.22 ratio	B12
0.22 ratio	B13
0.63 ratio	B14
0.43 ratio	B15
0.73 ratio	B16
0.57 ratio	B17

biological target: T1, FcγRIIa H; experiment: SPR (Biacore), captured antibody, FcγR analyte; relative to GpH7-A5/GpH7-B3/GpL16-k0 = 100
Procedure: (§1) The heterodimerized antibodies He Abs in which one of the H chains was introduced with an alteration were assayed for their binding activities to each activating FcγR and inhibitory FcγR according to the method described in Example 4. […] The activating FcγRs in FIGS. 26, 27, 28, and 29 are FcγRIa, FcγRIIa (R), FcγRIIa (H), and FcγRIIIa, respectively.
(§2) Analysis of interaction between objective antibody and the FcγR was carried out using Biacore T100 (GE Healthcare). HBS-EP+ (GE Healthcare) was used as the running buffer, and the measurement temperature was set to 25° C. Chips produced by immobilizing the antigen peptide by the amine coupling method to a Series S Sencor Chip CM5 (GE Healthcare), or alternatively, chips produced by allowing preliminarily biotinylated antigen peptides to interact with and immobilize onto a Series S Sensor Chip SA (certified) (GE Healthcare) were used. Antibodies of interest were captured onto an antigen peptide-immobilized chip, and allowed to interact to each FcγR diluted with running buffer. To regenerate and repeatedly use the chip, the antibodies captured on the chip were washed off by reacting 10 mM glycine-HCl, pH 1.5.

He/Con_2aH	Binder
45.2 relative (control = 100)	B1
98.3 relative (control = 100)	B2
102 relative (control = 100)	B3
83.3 relative (control = 100)	B4
20.7 relative (control = 100)	B5
92.7 relative (control = 100)	B6
33.4 relative (control = 100)	B7
100 relative (control = 100)	B8
52.5 relative (control = 100)	B9
114 relative (control = 100)	B10
47.6 relative (control = 100)	B11
38.1 relative (control = 100)	B12
48.2 relative (control = 100)	B13
103 relative (control = 100)	B14
53.1 relative (control = 100)	B15
101 relative (control = 100)	B16
110 relative (control = 100)	B17

biological target: T2, FcγRIIb; experiment: as above
Procedure: as §1, §2

He/Con_2b	Binder
111 relative (control = 100)	B1
159 relative (control = 100)	B2
200 relative (control = 100)	B3
148 relative (control = 100)	B4
26 relative (control = 100)	B5
177 relative (control = 100)	B6
143 relative (control = 100)	B7
199 relative (control = 100)	B8
95.9 relative (control = 100)	B9
150 relative (control = 100)	B10
64.4 relative (control = 100)	B11
171 relative (control = 100)	B12
217 relative (control = 100)	B13
165 relative (control = 100)	B14
124 relative (control = 100)	B15
139 relative (control = 100)	B16
193 relative (control = 100)	B17

— US20180155451A1 (published 2018)
